# Data as given in IntAct's records for PubMed 9653157.
# B1: Cell division control protein 18 (Schizosaccharomyces pombe (strain ATCC 38366 / 972)), P41411 (parent)
# chain: MCETPIGCHTPRRCNRFIDSAALIDCTNKTNQREHSPSFSIEIPTTPSRKRTLASSHFQTPTKRIKYELGELQEEKTDLYPNFPAQLKENKKPKLPTTPQTPKTPKRTIQIVTPKSLNRTCNPVPFATRLLQSTPHRQLFPPTPSTPSTPSYNSTAKLSLRKSYRSAGVVGRENEKSIVESFFRQHLDANAGGALYVSGAPGTGKTVLLHNVLDHVVSDYPKVNVCYINCMTINEPKAIFEKIHSKIVKEEILENEDHHINFQCELESHFTQSANELYNPVIIVLDEMDHLIAREQQVLYTLFEWPSRPTSRLILVGIANALDMTDRFLPRLRTKHITPKLLSFTPYTAQEISTIIKARLKTAATTSEKNNPFTPIKSISEVSDDSINVVSQHADETPFIHPAAIELCARKVAASSGDLRKALDICRHAIELAEREWKAQHDNTLSSVDIPRASIAHVVRATSAMSQSASARLKNLGLQQKAILCTLVVCEKTSLSVADVFEKYSSLCLRDRLIYPLTSSEFCDVANSLETLAIIRLRTKQRNGKPQDRIISLLVPEMDVITAVGDIGTLKRFFDRR
# partner: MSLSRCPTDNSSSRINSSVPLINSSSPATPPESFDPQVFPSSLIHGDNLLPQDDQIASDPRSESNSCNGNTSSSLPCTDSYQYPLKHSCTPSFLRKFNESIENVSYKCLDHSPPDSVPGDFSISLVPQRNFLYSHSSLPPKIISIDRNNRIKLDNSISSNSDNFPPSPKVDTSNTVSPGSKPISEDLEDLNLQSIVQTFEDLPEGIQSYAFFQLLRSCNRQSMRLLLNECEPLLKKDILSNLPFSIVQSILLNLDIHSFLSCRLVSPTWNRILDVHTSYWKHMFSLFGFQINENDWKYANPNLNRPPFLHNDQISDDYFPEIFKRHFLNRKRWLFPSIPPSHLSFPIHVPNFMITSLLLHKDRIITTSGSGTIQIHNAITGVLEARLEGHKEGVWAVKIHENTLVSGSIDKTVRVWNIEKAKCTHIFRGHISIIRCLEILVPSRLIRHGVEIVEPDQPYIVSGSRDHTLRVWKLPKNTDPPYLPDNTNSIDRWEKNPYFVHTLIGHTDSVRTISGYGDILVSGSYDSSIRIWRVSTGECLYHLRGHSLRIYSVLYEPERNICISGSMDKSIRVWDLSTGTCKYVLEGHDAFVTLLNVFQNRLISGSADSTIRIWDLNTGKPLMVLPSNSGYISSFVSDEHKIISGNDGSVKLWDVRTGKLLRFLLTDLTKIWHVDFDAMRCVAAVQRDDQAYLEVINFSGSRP
# Variants of: B1
# Conditions: with pop2_schpo pop2, O14170
row,Variant,effect of a mutation on the interaction
1,T4A;T10A;T46A;T60A;T101A;T104A,disrupting interaction
